{
  "source": "paper PMC9569855",
  "about": "(2022)",
  "binders": {"B1": {"name": "Bamlanivimab (antibody, V domains shown)", "VH": "QVQLVQSGAEVKKPGSSVKVSCKASGGTFSNYAISWVRQAPGQGLEWMGRIIPILGIANYAQKFQGRVTITADKSTSTAYMELSSLRSEDTAVYYCARGYYEARHYYYYYAMDVWGQGTAVTVSS", "VL": "not shown"}},
  "biological_target": "SARS-CoV-2 wild type RBD (319-541aa) (SARS-CoV-2, UniProt P0DTC2 319-541)",
  "experiment": "SPR",
  "data": [
    {"binder": "B1", "values": [
      {"measurement": "koff", "value": 0.0014, "unit": "s⁻¹"}
    ]}
  ]
}
